PMC6113619

Target: T1, QscR (Pseudomonas aeruginosa PAO1?) (UniProt G3XD77)
T1 sequence: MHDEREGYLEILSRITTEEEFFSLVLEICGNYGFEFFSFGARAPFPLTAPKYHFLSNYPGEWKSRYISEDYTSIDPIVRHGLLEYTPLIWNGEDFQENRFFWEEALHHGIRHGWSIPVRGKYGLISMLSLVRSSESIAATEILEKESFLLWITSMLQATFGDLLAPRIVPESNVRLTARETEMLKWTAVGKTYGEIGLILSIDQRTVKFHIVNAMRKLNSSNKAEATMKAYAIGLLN
Experiment: EMSA
Conditions: EMSA: 40 ng probe, 0-100 ng QscR in 10 ul; 20 mM Tris pH 7.5, 50 mM KCl, 10% glycerol, 1 mM DTT, 20 uM 3OC12-HSL; 20 min room temperature; 5% native gel at …

Sequence	binding
CTCTCGTGTGAAGCCATTGCTCTGATCTTTTCGGACGTTTCTTCGAGCCTAGCAAGGGTCCGGGTTCACCGAAATCTATCTCATTTGCTAGTTATAAAATTATGAAATTTGCATAAATTCTTCAGCTTCCTATTTGGAGGAAGTGAAGATGATCGTACAAATTGGTCGGCGCGAAGAGTTCGATAAAAAACTGCTGGGCGAGATGCACAAGTTGCGTGCTCAAGTGTTC (double strand) [lasI promoter PCR fragment]	no binding
GCTTCACCGAGCAGAACTCCGGGCTGATCTACCGCGGGCAATCAGGCGGAATGAACGAAGCGTTCTCCGACATGGCCGGCGAGGCTGCCGAGTTCTATATGCGCGGCAAGAACGACTTCCTGATCGGCTACGACATCAAGAAGGGCAGCGGTGCGCTGCGCTACATGGACCAGCCCAGCC (double strand) [lasB promoter PCR fragment]	no binding
